This is an account of results in paper PMC4810252.

Details in all cases: glycan lost; control: wild type
Data set [1] is described as follows: HBsAg ELISA of supernatant; 293T and Huh7. (An ELISA detects its analyte on a solid surface through an enzyme-linked reagent.)
A short description of data set [2]: confocal co-localisation, transient and stable 293T.
Data set [3] in a line: sucrose gradient fractionation, stable 293T, Western blot. A general note: Immunoblotting shows a protein as a band on a membrane.
The nature of data set [4]: confocal co-localisation, stable 293T.
Data set [5] can be described thus: confocal co-localisation, transfected 293T.

B1: BST-2/tetherin: N65/92A (protein)
parent chain: MASTSYDYCRVPMEDGDKRCKLLLGIGILVLLIIVILGVPLIIFTIKANSEACRDGLRAVMECRNVTHLLQQELTEAQKGFQDVEAQAATCNHTVMALMASLDAEKAQGQKKVEELEGEITTLNHKLQDASAEVERLRRENQVLSVRIADKKYYPSSQDSSSAAAPQLLIVLLGLSALLQ
For the protein B1, the “other: restriction of virus release” value in data set [1] is “no change”. Also, the localisation_or_trafficking result was “increases” in data set [2] and “changes” in data set [3].

B2: BST-2/tetherin: N65A (protein)
parent chain: MASTSYDYCRVPMEDGDKRCKLLLGIGILVLLIIVILGVPLIIFTIKANSEACRDGLRAVMECRNVTHLLQQELTEAQKGFQDVEAQAATCNHTVMALMASLDAEKAQGQKKVEELEGEITTLNHKLQDASAEVERLRRENQVLSVRIADKKYYPSSQDSSSAAAPQLLIVLLGLSALLQ
As for B2, the localisation_or_trafficking entry in data set [4] was “no change”; in data set [5], “no change”; in data set [3] it was “changes”.

B3: BST-2/tetherin: N92A (protein)
parent chain: MASTSYDYCRVPMEDGDKRCKLLLGIGILVLLIIVILGVPLIIFTIKANSEACRDGLRAVMECRNVTHLLQQELTEAQKGFQDVEAQAATCNHTVMALMASLDAEKAQGQKKVEELEGEITTLNHKLQDASAEVERLRRENQVLSVRIADKKYYPSSQDSSSAAAPQLLIVLLGLSALLQ
As to B3, the localisation_or_trafficking entry in data set [5] is reported as “no change”; in data set [3], “changes”.
